Data published in US20120278951A1 (AGRESEARCH, published 2012).

Experiments:
[1] = biological target: the molecule itself; assay: self-association (dimer) seen by SDS-PAGE/immunoblot; almost completely disrupted by SDS plus urea
[2] = biological target: the molecule itself; assay: self-association seen by SDS and SDS-UREA PAGE/immunoblot; on artificial oil bodies with GSSG also trimeric, tetrameric and likely pentameric disulfide cross-linked oligomers
[3] = biological target: the molecule itself; assay: self-association / disulfide cross-linking seen by SDS and SDS-UREA PAGE/immunoblot of inclusion bodies and artificial oil bodies
[4] = biological target: the molecule itself; assay: disulfide cross-linked oligomers seen by non-reducing SDS-PAGE/immunoblot of artificial oil bodies

B1: Oleosin disulfide 0,0 (sesame seed oleosin without engineered cysteines), E. coli expressed from pET29b (other)
chain: MKETAAAKFERQHMDSPDLGTLVPRGSMAEHYGQQQQTRAPHLQLQPRAQRVVKAATAVTAGGSLLVLSGLTLAGTVIALTIATPLLVIFSPVLVPAVITIFLLGAGFLASGGFGVAALSVLSWIYRYLTGKHPPGADQLESAKTKLASKAREMKDRAEQFSQQPVPWLISDPNSSSVDKLAAALEHHHHHHH
notes: Purified from E. coli inclusion bodies; also called Ole-0-0; Oleosin-0-0
B1: binds [1].

B2: Oleosin disulfide 1,1 (sesame seed oleosin with one engineered cysteine in each hydrophilic arm), E. coli expressed from pET29b (other)
chain: MKETAAAKFERQHMDSPDLGTLVPRGSMACHYGQQQQTRAPHLQLQPRAQRVVKAATAVTAGGSLLVLSGLTLAGTVIALTIATPLLVIFSPVLVPAVITIFLLGAGFLASGGFGVAALSVLSWIYRYLTGKHPPGADQLESAKTKLASKAREMKDRAEQFSCQPVPWLEHHHHHH
notes: also called Ole-1-1; Oleosin-1-1
B2: binds [2].

B3: Oleosin disulfide 3,3 (sesame seed oleosin with three engineered cysteines in each hydrophilic arm), E. coli expressed from pET29b (other)
chain: MKETAAAKFERQHMDSPDLGTLVPRGSMACHYGQQQQTCAPHLQLQPRACRVVKAATAVTAGGSLLVLSGLTLAGTVIALTIATPLLVIFSPVLVPAVITIFLLGAGFLASGGFGVAALSVLSWIYRYLTGKHPPGADCLESAKTKLASCAREMKDRAEQFSCQPVPWLEHHHHHH
notes: also called Ole-3-3; Oleosin-3-3
B3: binds [3].

B4: Oleosin disulfide 3,1 (sesame seed oleosin with three N-terminal and one C-terminal engineered cysteines), E. coli expressed from pET29b (other)
chain: MKETAAAKFERQHMDSPDLGTLVPRGSMACHYGQQQQTCAPHLQLQPRACRVVKAATAVTAGGSLLVLSGLTLAGTVIALTIATPLLVIFSPVLVPAVITIFLLGAGFLASGGFGVAALSVLSWIYRYLTGKHPPGADQLESAKTKLASKAREMKDRAEQFSCQPVPWLEHHHHHH
notes: also called Ole-3-1; Oleosin-3-1
B4: binds [4].

B5: Oleosin disulfide 1,3 (sesame seed oleosin with one N-terminal and three C-terminal engineered cysteines), E. coli expressed from pET29b (other)
chain: MKETAAAKFERQHMDSPDLGTLVPRGSMACHYGQQQQTRAPHLQLQPRAQRVVKAATAVTAGGSLLVLSGLTLAGTVIALTIATPLLVIFSPVLVPAVITIFLLGAGFLASGGFGVAALSVLSWIYRYLTGKHPPGADCLESAKTKLASCAREMKDRAEQFSCQPVPWLEHHHHHH
notes: also called Ole-1-3; Oleosin-1-3
B5: binds [4].
